How the values were obtained:
Format in all cases: biochemical
[1] = substrate: CC[C@H](C)[C@H](NC(=O)[C@@H](NC(=O)[C@H](CCCNC(=N)N)NC(=O)[C@@H](NC(=O)[C@H](CCC(=O)Nc1ccc([N+](=O)[O-])cc1)NC(=O)[C@@H](N)Cc1ccc(O)cc1)C(C)C)C(C)C)C(=O)NCC(N)=O; assay: Cleavage of pNA substrates by activated factor XIIIa, absorbance at 405 nm (Michaelis-Menten kinetics and pre-test); conditions: other: pNA substrates, 37 °C, enzyme ca. 1,25 Einheiten/ml, varied substrate concentration, pH 7.5
Experimental: (§1) 250 Einheiten lyophilisiertes Fibrogammin HS (Aventis Behring) wurden in 4 ml Wasser gelöst, als 100 µl Portionen aliquotiert und bei -80 °C gelagert. 100 µl dieser Lösung enthalten 6,25 Einheiten FXIII.
(§2) 100 µl des aliqotierten Fibrogammins (entspricht 6,25 Einheiten) wurden mit 500 µl TBS-Puffer (50 mM Tris-HCl, pH 7,5 in 0,9% (w/v) NaCl), 360 µl einer 0.9 % NaCl-Lösung, 10 µl einer 1 M CaCl2-Lösung und 20 µl einer Thrombinlösung (Rinderthrombin: 14,2 U in 20 µl) versetzt. Der Ansatz wurde 20 min bei 37 °C inkubiert, danach wurden 10 µl einer Lösung mit rekombinantem Hirudin zugesetzt (r-Hirudin: HBW 023 mit 13442 IU mg^-1, Stammlösung des r-Hirudin = 1 mg/ml). Dieser Aktivierungsansatz besitzt ein Gesamtvolumen von 1 ml, der aktivierte Faktor Xllla wurde bei 37 °C aufbewahrt und für die folgenden kinetischen Messungen verwendet.
(§3) Die Messungen wurden bei 405 nm und 37 °C mit einem Microplate Reader der Firma Labsystems (iEMS Reader MF) mit folgendem Messansatz durchgeführt: • 150 µl TBS-Puffer (siehe oben, der Puffer kann gegebenenfalls auch eine Aminkomponente enthalten, beispielsweise H-Gly-Ethylester oder H-Gly-Gly-Ethylester oder ein anderes Amin, falls vorhanden ist die finale Konzentration des Amins im Messansatz 2,5 mM oder höher) • 50 µl Substratlösung • 50 µl Enzymlösung (im Messansatz ca. 1,25 Einheiten/ml)
(§4) Sämtliche Lösungen wurden vor Benutzung bei 37 °C aufbewahrt, vor Zugabe der FXllla-Lösung wurde die Mikroreadermessplatte nochmals 5 min bei 37 °C im Messgerät temperiert. Nach Zugabe der FXllla-Lösung wurde die Substratspaltung gestartet und die Änderung der Absorption bei 405 nm gemessen. Für einen Vortest wurde eine konstante Substratkonzentration verwendet. […] Wir haben vermutet, dass vor allem die Aminosäuren N- und C-terminal des Glu(pNA)-Restes wichtig für die Substraterkennung sind, deshalb wurde das N-terminale Glycin und das an dritter Position befindliche Serin innerhalb der Berichromsequenz durch andere Aminosäurereste ersetzt. Durch den Vortest wurde festgestellt, dass einige dieser Substrate deutlich schneller als die Derivate S1 und S2 gespalten werden. Für ausgewählte Substrate wurden die Substratkonzentrationen im Messansatz variiert und die bestimmten Umsatzgeschwindigkeiten als Funktion der Substratkonzentration entsprechend der Michaelis-Menten-Gleichung v=Vmax·[S]/(Km+[S]) aufgetragen und somit die kinetischen Konstanten Km und Vmax bestimmt, wobei Vmax in der Einheit Absorptionsänderung bei 405 nm/s erhalten wurde. Dies ist in Fig. 1 und Fig. 2 gezeigt.

[2] = substrate: CC[C@H](C)[C@H](NC(=O)[C@@H](NC(=O)[C@H](CCCCN)NC(=O)[C@@H](NC(=O)[C@H](CCC(=O)Nc1ccc([N+](=O)[O-])cc1)NC(=O)[C@@H](N)Cc1ccc(O)cc1)C(C)C)C(C)C)C(=O)NCC(N)=O; assay: as above; conditions: other: pNA substrates, 37 °C, enzyme ca. 1,25 Einheiten/ml, varied substrate concentration, pH 7.5
Experimental: as §1, §2, §3, §4

[3] = substrate: CC[C@H](C)[C@H](NC(=O)[C@H](CCC(=O)Nc1ccc([N+](=O)[O-])cc1)NC(=O)[C@@H](N)Cc1ccc(O)cc1)C(=O)N[C@@H](CCCCN)C(=O)N[C@H](C(=O)N[C@H](C(=O)NCC(N)=O)[C@@H](C)CC)C(C)C; assay: as above; conditions: other: pNA substrates, 37 °C, enzyme ca. 1,25 Einheiten/ml, varied substrate concentration, pH 7.5
Experimental: as §1, §2, §3, §4

[4] = substrate: CC[C@H](C)[C@H](NC(=O)[C@@H](NC(=O)[C@H](CCCCN)NC(=O)[C@@H](NC(=O)[C@H](CCC(=O)Nc1ccc([N+](=O)[O-])cc1)NC(=O)[C@@H](N)Cc1ccc(O)cc1)C(C)C)C(C)C)C(N)=O; assay: as above; conditions: other: pNA substrates, 37 °C, enzyme ca. 1,25 Einheiten/ml, varied substrate concentration, pH 7.5
Experimental: as §1, §2, §3, §4

[5] = substrate: CC[C@H](C)[C@H](NC(=O)[C@@H](NC(=O)[C@H](CCCCN)NC(=O)[C@H](CCCCNC(=O)OCc1ccccc1)NC(=O)[C@H](CCC(=O)Nc1ccc([N+](=O)[O-])cc1)NC(=O)[C@@H](N)Cc1c[nH]cn1)C(C)C)C(=O)NCC(N)=O; assay: Cleavage of AMC substrates by activated factor XIIIa, fluorescence plate reader (Michaelis-Menten kinetics); conditions: other: AMC substrates; λEX = 380 nm, λEm = 460 nm, room temperature; enzyme ca. 0,893 Einheiten/ml
Experimental: (§5) Die Aliquotierung des Zymogens Faktor XIII und Aktivierung des Zymogens FXIII zu Faktor XIIIa erfolgten analog der in Beispiel 3 beschriebenen Prozedur.
(§6) Sämtliche Lösungen wurden bei Raumtemperatur aufbewahrt. Die Bestimmung der Spaltung der AMC-Substrate durch FXllla wurde mit einem Fluoreszenz-Plattenreader Safire^2 der Firma Tecan (λEX = 380 nm, λEm = 460 nm) bei Raumtemperatur durchgeführt. • 100 µl TBS-Puffer (siehe oben, der Puffer kann gegebenenfalls auch eine Aminkomponente enthalten, beispielsweise H-Gly-Ethylester oder H-Gly-Gly-Ethylester oder ein anderes Amin) • 50 µl Substratlösung • 25 µl Enzymlösung (im Messansatz ca. 0,893 Einheiten/ml)
(§7) Die Michaelis-Menten-Auftragung für die AMC-enthaltenden Substrate ist in Fig. 3 gezeigt.

[6] = substrate: CC[C@H](C)[C@H](NC(=O)[C@@H](NC(=O)[C@H](CCCCN)NC(=O)[C@@H](NC(=O)[C@H](CCC(=O)Nc1ccc([N+](=O)[O-])cc1)NC(=O)[C@@H](N)CCCCN)C(C)C)C(C)C)C(=O)NCC(N)=O; assay: as above; conditions: other: AMC substrates; λEX = 380 nm, λEm = 460 nm, room temperature; enzyme ca. 0,893 Einheiten/ml
Experimental: as §5, §6, §7

B1: Faktor XIIIa (Homo sapiens) (protein)
chain: GVNLQEFLNVTSVHLFKERWDTNKVDHHTDKYENNKLIVRRGQSFYVQIDFSRPYDPRRDLFRVEYVIGRYPQENKGTYIPVPIVSELQSGKWGAKIVMREDRSVRLSIQSSPKCIVGKFRMYVAVWTPYGVLRTSRNPETDTYILFNPWCEDDAVYLDNEKEREEYVLNDIGVIFYGEVNDIKTRSWSYGQFEDGILDTCLYVMDRAQMDLSGRGNPIKVSRVGSAMVNAKDDEGVLVGSWDNIYAYGVPPSAWTGSVDILLEYRSSENPVRYGQCWVFAGVFNTFLRCLGIPARIVTNYFSAHDNDANLQMDIFLEEDGNVNSKLTKDSVWNYHCWNEAWMTRPDLPVGFGGWQAVDSTPQENSDGMYRCGPASVQAIKHGHVCFQFDAPFVFAEVNSDLIYITAKKDGTHVVENVDATHIGKLIVTKQIGGDGMMDITDTYKFQEGQEEERLALETALMYGAKKPLNTEGVMKSRSNVDMDFEVENAVLGKDFKLSITFRNNSHNRYTITAYLSANITFYTGVPKAEFKKETFDVTLEPLSFKKEAVLIQAGEYMGQLLEQASLHFFVTARINETRDVLAKQKSTVLTIPEIIIKVRGTQVVGSDMTVTVEFTNPLKETLRNVWVHLDGPGVTRPMKKMFREIRPNSTVQWEEVCRPWVSGHRKLIASMSSDSLRHVYGELDVQIQRRPSM
notes: Aktivierung des Zymogens FXIII zu Faktor XIIIa; purchased Aventis Behring Fibrogammin HS
- Km [1]: 49 µM
- Km [2]: 40 µM
- Km [3]: 78 µM
- Km [4]: 86 µM
- Km [5]: 41 µM
- Km [6]: 30 µM

— patent EP2348038A1, “Method for determining the activity of transglutaminase factor XIIIa” (PHILIPPS-UNIVERSITÄT MARBURG, priority 2010, dated 2011)
